Test results taken from patent US20100221240A1, “Chemically Modified Peptide Analogs” (FRAUNHOFER-GESELLSCHAFT ZUR FORDERUNG DER ANGEWANDTEN …, priority 2004, published 2010).

Legend:
[1] = Nyholm B. et al. 2001; cited from earlier work
[2] = ThT binding assay of the fibrile formation potential of the peptides alone; type: physicochemical; settings: 2% HFIP, 10 mM tris, pH 7.4
Experimental: b) Amyloid fibriles from various protein species bind to the dye ThT and result in an increase in the maximum fluorescence emission of the […]. The ThT binding is therefore a specific test widely used for quantifying amyloid fibriles. This test was used to determine the amyloid formation potential of the analogs compared to IAPP. For this test the analogs and IAPP were incubated at a concentration of 62.5 μm [sic; μM] (2% HFIP, 10 mM tris, pH 7.4). […] aliquots from these incubations were combined with […] of a 5 μM ThT solution (in 0.1 M glycine-NaOH buffer, pH 8.5), mixed, and after excitation at 450 nm the emission from the solution was determined at 485 nm. It was shown that IAPP forms fibriles at a concentration of 625 nM.

IAPP = target: T1, IAPP (Homo sapiens, UniProt P10997); assay: EM-tracked aggregation test of IAPP in 1:1 mixture with analogs; type: biochemical; settings: IAPP 5 μM alone or 1:1 with analog, 10 mM sodium phosphate pH 7.4, 1% HFIP, 20 h
T1 construct: Natural human IAPP
T1 sequence (P10997 34-70 limits assumed): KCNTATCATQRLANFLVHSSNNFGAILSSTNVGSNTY
Experimental: In one typical aggregation test tracked by EM, IAPP (5 μM) was incubated alone or in the presence of one of the analogs, in a 1:1 ratio (in 10 mM sodium phosphate buffer, pH 7.4, containing 1% HFIP). After 20 h, 10 μL of the solution was applied to an EM plate, and after dyeing with 1% uranyl acetate as described in Kayed, J. Mol. Biol. (1999) 287, 781-796 was analyzed for the presence of fibriles by means of EM.

[3] = Sedimentation test (solubility; BCA protein determination of pellet and supernatant); type: physicochemical; settings: pH 7.4
Experimental: a) The sedimentation test was used to investigate the solubility of the analogs compared to IAPP. The quantity of precipitated or soluble peptide was determined as a function of time. In one typical experiment, first a peptide solution at a given concentration (1, 10, or 100 μM) in 10 mM sodium phosphate buffer, pH 7.4 was prepared. Aliquots of this solution were centrifuged at specified times (20200 g, 20 min), and precipitated protein in the pellet and supernatant was quantified using the bicinchonic acid (BCA) protein determination assay. FIG. 1 illustrates several results from this test. […] After 20 h IAPP was completely precipitated; in contrast, the N-methylated IAPP-LA [sic; IAPP-AL], IAPP-GI, and IAPP-AF [sic; IAPP-FA] analogs remained soluble over 14 days, even at a concentration of 100 μM. IAPP completely precipitated after only 2 h under the latter-referenced conditions (100 μM).

[4] = EM analysis of peptide solutions for fibriles; type: physicochemical; settings: 5 μM, 10 mM sodium phosphate buffer pH 7.4, 1% HFIP, approximately 20 h at RT
Experimental: c) For EM analyses, 5-μM solutions of the analogs versus IAPP (in 10 mM sodium phosphate buffer, pH 7.4, containing 1% HFIP) were incubated for approximately 20 h at RT. 10 μL of the solutions was then applied to EM plates, and after dyeing with 1% uranyl acetate as described in Kayed, J. Mol. Biol. (1999) 287, 781-796 was analyzed for the presence of fibriles by means of EM.

[5] = target: T2, IAPP receptor on MCF-7 cells (Homo sapiens, UniProt P30988); assay: Stability in solution: preservation of AC activation potential (hormonal activity) on storage; type: cell-based; settings: 250 μM or 1 mg/mL, sodium phosphate pH 7.4, RT, 4 days; 1 μM end concentration on cells
T2 construct: Specific IAPP receptors are expressed in the MCF-7 cell line; endogenous in cells; host or cells: MCF-7 (human breast cancer cells)
T2 sequence (P30988 25-474): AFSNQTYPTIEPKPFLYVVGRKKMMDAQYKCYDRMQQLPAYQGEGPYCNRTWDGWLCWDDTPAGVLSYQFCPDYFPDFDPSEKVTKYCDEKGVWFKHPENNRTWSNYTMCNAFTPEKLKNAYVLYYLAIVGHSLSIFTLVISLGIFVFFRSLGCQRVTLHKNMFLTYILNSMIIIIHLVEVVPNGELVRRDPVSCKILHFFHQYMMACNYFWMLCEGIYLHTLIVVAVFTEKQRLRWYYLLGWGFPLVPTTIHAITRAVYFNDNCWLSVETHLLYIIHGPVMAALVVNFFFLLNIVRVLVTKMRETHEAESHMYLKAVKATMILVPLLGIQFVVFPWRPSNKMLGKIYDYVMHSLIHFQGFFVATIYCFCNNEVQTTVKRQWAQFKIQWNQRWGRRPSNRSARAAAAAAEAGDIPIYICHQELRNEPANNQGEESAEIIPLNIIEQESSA
Experimental: To [determine] the potential applicability of the analogs as an IAPP or pramlintide replacement in the treatment of diabetes and/or other diseases, the stability of the solutions of the analogs and thus their hormonal activity in comparison to readily aggregating IAPP was investigated. In one typical assay, aqueous solutions of IAPP, IAPP-AL, IAPP-GI, or 1:1 mixtures of the analogs with IAPP (250 μM or 1 mg/mL) in […] sodium phosphate, pH 7.4, were used at RT and incubated for 4 days. The AC activation potential of these solutions was determined at various times, e.g., at times 0, 48 h, and 96 h, by means of the AC activation assay described above (end concentration in the cells was 1 μM, corresponding to maximum activation) (FIG. 9).

[6] = 10 μM in 10 mM sodium phosphate buffer

CC[C@H](C)[C@H](NC(=O)[C@@H]1CCCN1C(=O)CNC(=O)[C@H](Cc1ccccc1)NC(=O)[C@H](CC(N)=O)NC(=O)[C@H](CC(N)=O)NC(=O)[C@H](CO)NC(=O)[C@H](CO)NC(=O)[C@H](Cc1c[nH]cn1)NC(=O)[C@@H](NC(=O)[C@H](CC(C)C)NC(=O)[C@H](Cc1ccccc1)NC(=O)[C@H](CC(N)=O)NC(=O)[C@H](C)NC(=O)[C@H](CC(C)C)NC(=O)[C@H](CCCNC(=N)N)NC(=O)[C@H](CCC(N)=O)NC(=O)[C@@H](NC(=O)[C@H](C)NC(=O)[C@@H]1CSSC[C@H](NC(=O)[C@@H](N)CCCCN)C(=O)N[C@@H](CC(N)=O)C(=O)N[C@@H]([C@@H](C)O)C(=O)N[C@@H](C)C(=O)N[C@@H]([C@@H](C)O)C(=O)N1)[C@@H](C)O)C(C)C)C(=O)N[C@@H](CC(C)C)C(=O)N1CCC[C@H]1C(=O)N1CCC[C@H]1C(=O)N[C@H](C(=O)N[C@@H](CC(N)=O)C(=O)N[C@H](C(=O)NCC(=O)N[C@@H](CO)C(=O)N[C@@H](CC(N)=O)C(=O)N[C@H](C(=O)N[C@@H](Cc1ccc(O)cc1)C(N)=O)[C@@H](C)O)C(C)C)[C@@H](C)O [pramlintide]
pH values at which the peptide tends to aggregate [1]: above 5

Natural human IAPP (KCNTATCATQRLANFLVHSSNNFGAILSSTNVGSNTY; listed as Homo sapiens) [peptide hormone of 37 amino acids]
concentration at which fibriles form [2]: 625 nM | fibrile formation by EM (IAPP): composed primarily of IAPP amyloid fibriles | onset of aggregation [3, 6]: began immediately after the solution was prepared | time after which peptide was completely precipitated [3, 6]: 20 h | time after which peptide was completely precipitated ([3]; 100 μM in 10 mM sodium phosphate buffer): 2 h | presence of fibriles by EM [4]: composed primarily of IAPP amyloid fibriles | hormonal activity (AC activation potential) after storage in solution [5]: may lose more than half of its original hormonal activity
